According to PMC13016609, “UV irradiation alters TFAM binding specificity and compaction of DNA”:

Experiments:
TFAM (no MTS) [1] = target: T1, TFAM (no MTS) (Homo sapiens, UniProt Q00059 43-246); assay: fluorescence anisotropy; Hill n 3.09±0.11; FP: 25 mM HEPES, 10 mM Mg(OAc)2, 25 mM NaOAc, 75 mM KOAc, pH 7.5, 1 nM DNA, TFAM 0-15 nM diluted on ice (read temperature not stated); AFM oligos: on ice, 2 min; details: protein: recombinant; label: 5' 6-FAM on strand 1; blunt
T1 sequence: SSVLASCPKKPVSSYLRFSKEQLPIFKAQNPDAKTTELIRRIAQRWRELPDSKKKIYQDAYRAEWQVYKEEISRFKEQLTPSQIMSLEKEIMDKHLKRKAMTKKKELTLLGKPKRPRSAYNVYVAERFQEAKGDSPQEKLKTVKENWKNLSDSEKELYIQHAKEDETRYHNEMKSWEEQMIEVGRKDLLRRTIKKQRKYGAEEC

TFAM (no MTS) [2] = target: T1, TFAM (no MTS); assay: fluorescence anisotropy; +UVC; Hill n 4.38±0.33; FP: 25 mM HEPES, 10 mM Mg(OAc)2, 25 mM NaOAc, 75 mM KOAc, pH 7.5, 1 nM DNA, TFAM 0-15 nM diluted on ice (read temperature not stated); AFM oligos: on ice, 2 min; details: protein: recombinant; label: 5' 6-FAM on strand 1; blunt
TFAM (no MTS) [3] = target: T1, TFAM (no MTS); assay: fluorescence anisotropy; Hill n 2.84±0.14; FP: 25 mM HEPES, 10 mM Mg(OAc)2, 25 mM NaOAc, 75 mM KOAc, pH 7.5, 1 nM DNA, TFAM 0-15 nM diluted on ice (read temperature not stated); AFM oligos: on ice, 2 min; details: protein: recombinant; label: 5' 6-FAM on strand 1; blunt
TFAM (no MTS) [4] = target: T1, TFAM (no MTS); assay: fluorescence anisotropy; +UVC; Hill n 2.27±0.26; FP: 25 mM HEPES, 10 mM Mg(OAc)2, 25 mM NaOAc, 75 mM KOAc, pH 7.5, 1 nM DNA, TFAM 0-15 nM diluted on ice (read temperature not stated); AFM oligos: on ice, 2 min; details: protein: recombinant; label: 5' 6-FAM on strand 1; blunt
TFAM (no MTS) [5] = target: T1, TFAM (no MTS); assay: fluorescence anisotropy; Hill n 3.04±0.19; FP: 25 mM HEPES, 10 mM Mg(OAc)2, 25 mM NaOAc, 75 mM KOAc, pH 7.5, 1 nM DNA, TFAM 0-15 nM diluted on ice (read temperature not stated); AFM oligos: on ice, 2 min; details: protein: recombinant; label: 5' 6-FAM on strand 1; blunt
TFAM (no MTS) [6] = target: T1, TFAM (no MTS); assay: fluorescence anisotropy; +UVC; Hill n 1.90±0.12; FP: 25 mM HEPES, 10 mM Mg(OAc)2, 25 mM NaOAc, 75 mM KOAc, pH 7.5, 1 nM DNA, TFAM 0-15 nM diluted on ice (read temperature not stated); AFM oligos: on ice, 2 min; details: protein: recombinant; label: 5' 6-FAM on strand 1; blunt
TFAM (no MTS) [7] = target: T1, TFAM (no MTS); assay: fluorescence anisotropy; Hill n 2.15±0.24; FP: 25 mM HEPES, 10 mM Mg(OAc)2, 25 mM NaOAc, 75 mM KOAc, pH 7.5, 1 nM DNA, TFAM 0-15 nM diluted on ice (read temperature not stated); AFM oligos: on ice, 2 min; details: protein: recombinant; label: 5' 6-FAM on strand 1; blunt
TFAM (no MTS) [8] = target: T1, TFAM (no MTS); assay: fluorescence anisotropy; +UVC; Hill n 1.81±0.05; FP: 25 mM HEPES, 10 mM Mg(OAc)2, 25 mM NaOAc, 75 mM KOAc, pH 7.5, 1 nM DNA, TFAM 0-15 nM diluted on ice (read temperature not stated); AFM oligos: on ice, 2 min; details: protein: recombinant; label: 5' 6-FAM on strand 1; blunt
TFAM (no MTS) [9] = target: T1, TFAM (no MTS); assay: fluorescence anisotropy; Hill n 2.64±0.22; FP: 25 mM HEPES, 10 mM Mg(OAc)2, 25 mM NaOAc, 75 mM KOAc, pH 7.5, 1 nM DNA, TFAM 0-15 nM diluted on ice (read temperature not stated); AFM oligos: on ice, 2 min; details: protein: recombinant; label: 5' 6-FAM on strand 1; blunt
TFAM (no MTS) [10] = target: T1, TFAM (no MTS); assay: fluorescence anisotropy; +UVC; Hill n 2.61±0.25; FP: 25 mM HEPES, 10 mM Mg(OAc)2, 25 mM NaOAc, 75 mM KOAc, pH 7.5, 1 nM DNA, TFAM 0-15 nM diluted on ice (read temperature not stated); AFM oligos: on ice, 2 min; details: protein: recombinant; label: 5' 6-FAM on strand 1; blunt
TFAM (no MTS) [11] = target: T1, TFAM (no MTS); assay: fluorescence anisotropy; Hill n 3.85±0.49; FP: 25 mM HEPES, 10 mM Mg(OAc)2, 25 mM NaOAc, 75 mM KOAc, pH 7.5, 1 nM DNA, TFAM 0-15 nM diluted on ice (read temperature not stated); AFM oligos: on ice, 2 min; details: protein: recombinant; label: 5' 6-FAM on strand 1 (FP); blunt
TFAM (no MTS) [12] = target: T1, TFAM (no MTS); assay: fluorescence anisotropy; +UVC; Hill n 2.94±0.40; FP: 25 mM HEPES, 10 mM Mg(OAc)2, 25 mM NaOAc, 75 mM KOAc, pH 7.5, 1 nM DNA, TFAM 0-15 nM diluted on ice (read temperature not stated); AFM oligos: on ice, 2 min; details: protein: recombinant; label: 5' 6-FAM on strand 1; blunt
TFAM (no MTS) [13] = target: T1, TFAM (no MTS); assay: fluorescence anisotropy; Hill n 2.77±0.17; FP: 25 mM HEPES, 10 mM Mg(OAc)2, 25 mM NaOAc, 75 mM KOAc, pH 7.5, 1 nM DNA, TFAM 0-15 nM diluted on ice (read temperature not stated); AFM oligos: on ice, 2 min; details: protein: recombinant; label: 5' 6-FAM on strand 1; blunt
TFAM (no MTS) [14] = target: T1, TFAM (no MTS); assay: fluorescence anisotropy; +UVC; Hill n 2.18±0.14; FP: 25 mM HEPES, 10 mM Mg(OAc)2, 25 mM NaOAc, 75 mM KOAc, pH 7.5, 1 nM DNA, TFAM 0-15 nM diluted on ice (read temperature not stated); AFM oligos: on ice, 2 min; details: protein: recombinant; label: 5' 6-FAM on strand 1; blunt
TFAM (no MTS) [15] = target: T1, TFAM (no MTS); assay: fluorescence anisotropy; Hill n 2.40±0.43; FP: 25 mM HEPES, 10 mM Mg(OAc)2, 25 mM NaOAc, 75 mM KOAc, pH 7.5, 1 nM DNA, TFAM 0-15 nM diluted on ice (read temperature not stated); AFM oligos: on ice, 2 min; details: protein: recombinant; label: 5' 6-FAM on strand 1; blunt
TFAM (no MTS) [16] = target: T1, TFAM (no MTS); assay: fluorescence anisotropy; +UVC; Hill n 2.20±0.13; FP: 25 mM HEPES, 10 mM Mg(OAc)2, 25 mM NaOAc, 75 mM KOAc, pH 7.5, 1 nM DNA, TFAM 0-15 nM diluted on ice (read temperature not stated); AFM oligos: on ice, 2 min; details: protein: recombinant; label: 5' 6-FAM on strand 1; blunt
TFAM (no MTS) [17] = target: T1, TFAM (no MTS); assay: fluorescence anisotropy; Hill n 5.06±0.09; FP: 25 mM HEPES, 10 mM Mg(OAc)2, 25 mM NaOAc, 75 mM KOAc, pH 7.5, 1 nM DNA, TFAM 0-15 nM diluted on ice (read temperature not stated); AFM oligos: on ice, 2 min; details: protein: recombinant; label: 5' 6-FAM on strand 1 (FP); blunt
TFAM (no MTS) [18] = target: T1, TFAM (no MTS); assay: fluorescence anisotropy; +UVC; Hill n 4.76±0.11; FP: 25 mM HEPES, 10 mM Mg(OAc)2, 25 mM NaOAc, 75 mM KOAc, pH 7.5, 1 nM DNA, TFAM 0-15 nM diluted on ice (read temperature not stated); AFM oligos: on ice, 2 min; details: protein: recombinant; label: 5' 6-FAM on strand 1; blunt

B1: ND1_353 40mer (dsDNA)
DNA 1: CACAAACATTATTATAATAAACACCCTCACCACTACAATC
DNA 2: GATTGTAGTGGTGAGGGTGTTTATTATAATAATGTTTGTG
Kd (TFAM (no MTS) [1]): 5.69 ± 0.15 nM

B2: ND1_353 40mer +UVC (dsDNA)
DNA 1: CACAAACATTATTATAATAAACACCCTCACCACTACAATC
DNA 2: GATTGTAGTGGTGAGGGTGTTTATTATAATAATGTTTGTG
modifications: UVC 1500 J/m2 photolesions (positions undefined)
Kd (TFAM (no MTS) [2]): 7.25 ± 0.39 nM

B3: ND6_87 (dsDNA)
DNA 1: TTCCTACACTATTAAAGTTTACCACAACCACCA
DNA 2: TGGTGGTTGTGGTAAACTTTAATAGTGTAGGAA
Kd (TFAM (no MTS) [3]): 5.2 ± 0.32 nM

B4: ND6_87 +UVC (dsDNA)
DNA 1: TTCCTACACTATTAAAGTTTACCACAACCACCA
DNA 2: TGGTGGTTGTGGTAAACTTTAATAGTGTAGGAA
modifications: UVC 1500 J/m2 photolesions (positions undefined)
Kd (TFAM (no MTS) [4]): 7.63 ± 0.21 nM

B5: ND1_288 (dsDNA)
DNA 1: CTCCACACTAGCAGAGACCAACCGAACCCCCTT
DNA 2: AAGGGGGTTCGGTTGGTCTCTGCTAGTGTGGAG
Kd (TFAM (no MTS) [5]): 3.41 ± 0.03 nM

B6: ND1_288 +UVC (dsDNA)
DNA 1: CTCCACACTAGCAGAGACCAACCGAACCCCCTT
DNA 2: AAGGGGGTTCGGTTGGTCTCTGCTAGTGTGGAG
modifications: UVC 1500 J/m2 photolesions (positions undefined)
Kd (TFAM (no MTS) [6]): 6.12 ± 0.22 nM

B7: TRNT_10 (dsDNA)
DNA 1: CTTGTAGTATAAACTAATACACCAGTCTTGTAA
DNA 2: TTACAAGACTGGTGTATTAGTTTATACTACAAG
Kd (TFAM (no MTS) [7]): 4.24 ± 0.12 nM

B8: TRNT_10 +UVC (dsDNA)
DNA 1: CTTGTAGTATAAACTAATACACCAGTCTTGTAA
DNA 2: TTACAAGACTGGTGTATTAGTTTATACTACAAG
modifications: UVC 1500 J/m2 photolesions (positions undefined)
Kd (TFAM (no MTS) [8]): 7.79 ± 0.8 nM

B9: ND2_401 (dsDNA)
DNA 1: CAAATGGGCCATTATCGAAGAATTCACAAAAAA
DNA 2: TTTTTTGTGAATTCTTCGATAATGGCCCATTTG
Kd (TFAM (no MTS) [9]): 4.36 ± 0.24 nM

B10: ND2_401 +UVC (dsDNA)
DNA 1: CAAATGGGCCATTATCGAAGAATTCACAAAAAA
DNA 2: TTTTTTGTGAATTCTTCGATAATGGCCCATTTG
modifications: UVC 1500 J/m2 photolesions (positions undefined)
Kd (TFAM (no MTS) [10]): 6.24 ± 0.15 nM

B11: ND1_353 (dsDNA)
DNA 1: ATTATTATAATAAACACCCTCACCACTACAATC
DNA 2: GATTGTAGTGGTGAGGGTGTTTATTATAATAAT
Kd (TFAM (no MTS) [11]): 7.56 ± 0.34 nM

B12: ND1_353 +UVC (dsDNA)
DNA 1: ATTATTATAATAAACACCCTCACCACTACAATC
DNA 2: GATTGTAGTGGTGAGGGTGTTTATTATAATAAT
modifications: UVC 1500 J/m2 photolesions (positions undefined)
Kd (TFAM (no MTS) [12]): 7.66 ± 0.88 nM

B13: COX2_229 (dsDNA)
DNA 1: GCCCCCATTCGTATAATAATTACATCACAAGAC
DNA 2: GTCTTGTGATGTAATTATTATACGAATGGGGGC
Kd (TFAM (no MTS) [13]): 3.94 ± 0.03 nM

B14: COX2_229 +UVC (dsDNA)
DNA 1: GCCCCCATTCGTATAATAATTACATCACAAGAC
DNA 2: GTCTTGTGATGTAATTATTATACGAATGGGGGC
modifications: UVC 1500 J/m2 photolesions (positions undefined)
Kd (TFAM (no MTS) [14]): 4.87 ± 0.35 nM

B15: ND1_450 (dsDNA)
DNA 1: ACTCACCCTAGCATTACTTATATGATATGTCTC
DNA 2: GAGACATATCATATAAGTAATGCTAGGGTGAGT
Kd (TFAM (no MTS) [15]): 4.33 ± 0.17 nM

B16: ND1_450 +UVC (dsDNA)
DNA 1: ACTCACCCTAGCATTACTTATATGATATGTCTC
DNA 2: GAGACATATCATATAAGTAATGCTAGGGTGAGT
modifications: UVC 1500 J/m2 photolesions (positions undefined)
Kd (TFAM (no MTS) [16]): 6.36 ± 0.51 nM

B17: ND4_473 (dsDNA)
DNA 1: CGGCGCAGTCATTCTCATAATCGCCCACGGGCT
DNA 2: AGCCCGTGGGCGATTATGAGAATGACTGCGCCG
Kd (TFAM (no MTS) [17]): 4.95 ± 0.03 nM

B18: ND4_473 +UVC (dsDNA)
DNA 1: CGGCGCAGTCATTCTCATAATCGCCCACGGGCT
DNA 2: AGCCCGTGGGCGATTATGAGAATGACTGCGCCG
modifications: UVC 1500 J/m2 photolesions (positions undefined)
Kd (TFAM (no MTS) [18]): 5.36 ± 0.14 nM
